How the values were obtained:
Experiment in all cases: cell-based or functional assay
PTHR2 fused to PK2 = PTHR2 fused to PK2 (UniProt P49190)
SSTR1 fused to PK1 = SSTR1 fused to PK1 (UniProt P30872)
SALPR fused to PK2 = SALPR fused to PK2 (UniProt Q9NSD7)
CCR6 fused to PK1 = biological target: T1, CCR6 fused to PK1 (UniProt P51684)
T1 sequence (looked up): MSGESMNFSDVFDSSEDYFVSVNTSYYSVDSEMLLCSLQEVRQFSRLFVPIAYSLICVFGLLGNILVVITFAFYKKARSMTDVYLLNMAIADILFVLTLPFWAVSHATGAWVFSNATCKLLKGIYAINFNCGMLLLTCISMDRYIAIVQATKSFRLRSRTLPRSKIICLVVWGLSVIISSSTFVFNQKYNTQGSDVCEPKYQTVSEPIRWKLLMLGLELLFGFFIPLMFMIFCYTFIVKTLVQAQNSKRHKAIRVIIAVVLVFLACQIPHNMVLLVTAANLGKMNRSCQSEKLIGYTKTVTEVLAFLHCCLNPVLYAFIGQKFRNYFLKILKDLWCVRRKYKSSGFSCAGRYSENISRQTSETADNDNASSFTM

CCR6 fused to PK2 = biological target: T2, CCR6 fused to PK2 (UniProt P51684)
T2 sequence (P51684 whole entry, species assumed, looked up): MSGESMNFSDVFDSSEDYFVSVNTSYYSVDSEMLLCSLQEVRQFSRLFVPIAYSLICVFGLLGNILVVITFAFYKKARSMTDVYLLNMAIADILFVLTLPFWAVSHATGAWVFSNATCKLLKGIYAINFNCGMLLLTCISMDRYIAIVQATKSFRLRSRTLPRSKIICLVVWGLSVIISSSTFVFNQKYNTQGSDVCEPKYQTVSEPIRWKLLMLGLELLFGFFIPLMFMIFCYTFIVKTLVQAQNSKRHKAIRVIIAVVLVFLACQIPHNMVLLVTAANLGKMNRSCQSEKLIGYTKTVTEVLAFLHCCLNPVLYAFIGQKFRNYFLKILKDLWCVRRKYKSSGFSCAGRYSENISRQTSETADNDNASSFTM

MC3R fused to PK2 = MC3R fused to PK2 (UniProt P41968)
Chain of MC3R fused to PK2 (P41968 whole entry, the tested form may be a part): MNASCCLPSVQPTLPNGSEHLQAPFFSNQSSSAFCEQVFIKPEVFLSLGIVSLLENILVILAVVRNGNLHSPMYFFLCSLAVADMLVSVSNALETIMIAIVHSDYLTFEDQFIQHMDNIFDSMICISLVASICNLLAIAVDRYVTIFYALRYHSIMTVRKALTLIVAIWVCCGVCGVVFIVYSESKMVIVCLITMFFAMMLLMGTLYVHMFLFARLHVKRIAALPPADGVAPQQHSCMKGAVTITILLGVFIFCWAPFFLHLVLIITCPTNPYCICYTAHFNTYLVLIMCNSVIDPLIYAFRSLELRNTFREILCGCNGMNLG

CRHR2 fused to PK1 = biological target: T3, CRHR2 fused to PK1 (UniProt Q13324)
T3 sequence (looked up): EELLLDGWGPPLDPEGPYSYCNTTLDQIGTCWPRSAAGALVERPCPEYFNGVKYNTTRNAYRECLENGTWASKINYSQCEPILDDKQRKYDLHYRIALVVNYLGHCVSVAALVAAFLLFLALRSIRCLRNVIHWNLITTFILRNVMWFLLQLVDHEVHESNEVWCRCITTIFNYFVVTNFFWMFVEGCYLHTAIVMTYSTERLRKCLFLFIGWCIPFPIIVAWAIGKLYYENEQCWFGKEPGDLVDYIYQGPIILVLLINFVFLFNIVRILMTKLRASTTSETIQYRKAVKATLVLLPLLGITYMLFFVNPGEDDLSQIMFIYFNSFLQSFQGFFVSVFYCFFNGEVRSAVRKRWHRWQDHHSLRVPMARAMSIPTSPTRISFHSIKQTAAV

CRHR2 fused to PK2 = biological target: T4, CRHR2 fused to PK2 (UniProt Q13324)
T4 sequence (Q13324 whole entry, species assumed, looked up): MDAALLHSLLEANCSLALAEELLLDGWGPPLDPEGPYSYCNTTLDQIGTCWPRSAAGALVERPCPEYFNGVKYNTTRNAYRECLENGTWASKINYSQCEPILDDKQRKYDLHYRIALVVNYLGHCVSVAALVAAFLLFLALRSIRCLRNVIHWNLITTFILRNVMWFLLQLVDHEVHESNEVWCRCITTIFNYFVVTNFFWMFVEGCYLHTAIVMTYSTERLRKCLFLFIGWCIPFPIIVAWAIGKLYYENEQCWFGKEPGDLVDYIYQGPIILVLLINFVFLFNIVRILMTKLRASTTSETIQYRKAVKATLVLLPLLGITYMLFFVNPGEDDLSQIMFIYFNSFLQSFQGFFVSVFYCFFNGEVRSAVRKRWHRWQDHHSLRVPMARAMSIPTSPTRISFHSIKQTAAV

SSTR1 fused to PK2 = SSTR1 fused to PK2 (UniProt P30872)
Chain of SSTR1 fused to PK2 (P30872 whole entry, the tested form may be a part): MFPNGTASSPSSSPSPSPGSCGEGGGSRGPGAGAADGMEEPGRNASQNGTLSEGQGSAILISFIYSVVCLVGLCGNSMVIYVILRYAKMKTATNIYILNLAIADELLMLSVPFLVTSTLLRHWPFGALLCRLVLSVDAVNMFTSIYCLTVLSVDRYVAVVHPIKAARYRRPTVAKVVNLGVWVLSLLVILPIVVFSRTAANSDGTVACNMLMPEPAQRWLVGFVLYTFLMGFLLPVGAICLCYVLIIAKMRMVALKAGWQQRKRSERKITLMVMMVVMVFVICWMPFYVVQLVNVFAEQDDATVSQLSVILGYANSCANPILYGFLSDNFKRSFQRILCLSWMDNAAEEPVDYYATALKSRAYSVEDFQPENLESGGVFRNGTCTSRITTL

SSTR4 fused to PK1 = SSTR4 fused to PK1 (UniProt P31391)
Chain of SSTR4 fused to PK1 (P31391 whole entry, the tested form may be a part): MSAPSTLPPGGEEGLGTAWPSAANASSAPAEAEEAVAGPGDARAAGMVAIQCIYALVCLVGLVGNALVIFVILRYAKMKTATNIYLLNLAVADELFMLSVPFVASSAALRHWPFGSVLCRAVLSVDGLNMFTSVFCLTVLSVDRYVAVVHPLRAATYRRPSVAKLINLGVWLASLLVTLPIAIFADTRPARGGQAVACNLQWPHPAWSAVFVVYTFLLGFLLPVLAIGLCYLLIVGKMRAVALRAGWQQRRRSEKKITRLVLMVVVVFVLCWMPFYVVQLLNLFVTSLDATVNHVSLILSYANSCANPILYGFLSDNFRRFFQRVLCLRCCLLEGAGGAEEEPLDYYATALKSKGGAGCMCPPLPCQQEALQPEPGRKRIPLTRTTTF

SSTR4 fused to PK2 = SSTR4 fused to PK2 (UniProt P31391)
Chain of SSTR4 fused to PK2 (P31391 whole entry, the tested form may be a part): as above

CCR4 fused to PK1 = biological target: T5, CCR4 fused to PK1 (UniProt P51679)
T5 sequence (looked up): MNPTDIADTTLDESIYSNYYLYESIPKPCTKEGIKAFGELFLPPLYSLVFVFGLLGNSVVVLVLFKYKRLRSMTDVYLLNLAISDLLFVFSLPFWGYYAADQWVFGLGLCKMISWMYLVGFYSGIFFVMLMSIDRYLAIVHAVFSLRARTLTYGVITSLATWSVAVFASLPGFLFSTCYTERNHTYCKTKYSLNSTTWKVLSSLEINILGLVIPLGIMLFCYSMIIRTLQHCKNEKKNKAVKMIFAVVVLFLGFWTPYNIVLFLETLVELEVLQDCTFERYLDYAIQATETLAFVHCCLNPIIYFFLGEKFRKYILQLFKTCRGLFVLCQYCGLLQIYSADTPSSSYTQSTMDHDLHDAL

CCR4 fused to PK2 = biological target: T6, CCR4 fused to PK2 (UniProt P51679)
T6 sequence (P51679 whole entry, species assumed, looked up): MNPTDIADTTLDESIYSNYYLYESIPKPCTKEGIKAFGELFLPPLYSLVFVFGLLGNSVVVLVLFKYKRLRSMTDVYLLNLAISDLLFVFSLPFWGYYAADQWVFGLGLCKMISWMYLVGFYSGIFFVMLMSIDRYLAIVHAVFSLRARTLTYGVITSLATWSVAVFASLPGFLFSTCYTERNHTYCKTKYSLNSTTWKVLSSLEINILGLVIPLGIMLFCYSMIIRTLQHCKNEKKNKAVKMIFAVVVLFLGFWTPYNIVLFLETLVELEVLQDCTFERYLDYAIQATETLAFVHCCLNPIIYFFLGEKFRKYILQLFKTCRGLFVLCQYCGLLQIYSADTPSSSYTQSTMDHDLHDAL

Chain of PTHR2 fused to PK2 (P49190 whole entry, the tested form may be a part): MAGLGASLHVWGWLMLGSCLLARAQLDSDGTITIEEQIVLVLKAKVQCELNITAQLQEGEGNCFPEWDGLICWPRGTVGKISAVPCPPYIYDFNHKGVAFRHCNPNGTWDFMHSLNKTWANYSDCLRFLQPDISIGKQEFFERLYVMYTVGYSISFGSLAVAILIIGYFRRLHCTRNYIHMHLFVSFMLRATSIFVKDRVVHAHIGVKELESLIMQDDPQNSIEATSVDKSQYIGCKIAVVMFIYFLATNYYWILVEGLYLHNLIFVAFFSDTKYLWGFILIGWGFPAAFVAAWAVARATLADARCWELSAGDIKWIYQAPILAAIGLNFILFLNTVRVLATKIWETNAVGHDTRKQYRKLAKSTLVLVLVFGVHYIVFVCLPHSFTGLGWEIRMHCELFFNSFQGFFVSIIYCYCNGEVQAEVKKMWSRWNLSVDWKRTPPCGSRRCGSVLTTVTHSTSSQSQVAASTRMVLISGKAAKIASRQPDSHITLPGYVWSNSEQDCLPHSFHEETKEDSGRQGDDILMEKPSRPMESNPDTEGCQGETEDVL
Chain of SSTR1 fused to PK1 (P30872 whole entry, the tested form may be a part): as the sequence (P30872 whole entry, the tested form may be a part) above
Chain of SALPR fused to PK2 (Q9NSD7 whole entry, the tested form may be a part): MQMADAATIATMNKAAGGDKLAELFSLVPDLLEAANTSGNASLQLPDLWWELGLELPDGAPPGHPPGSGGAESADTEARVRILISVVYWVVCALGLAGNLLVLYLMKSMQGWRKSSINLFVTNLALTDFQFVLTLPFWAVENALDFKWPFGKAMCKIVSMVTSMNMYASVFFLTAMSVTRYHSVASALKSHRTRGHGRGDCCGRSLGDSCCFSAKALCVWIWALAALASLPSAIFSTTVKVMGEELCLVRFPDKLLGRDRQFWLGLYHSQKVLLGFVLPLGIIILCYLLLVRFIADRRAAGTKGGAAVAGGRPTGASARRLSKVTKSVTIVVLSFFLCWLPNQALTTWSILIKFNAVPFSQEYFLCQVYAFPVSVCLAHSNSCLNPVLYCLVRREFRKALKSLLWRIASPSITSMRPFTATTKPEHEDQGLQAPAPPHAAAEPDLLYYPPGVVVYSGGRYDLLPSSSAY

Q: Which Fold induct. (arrestin recruitment, beta-galactosidase EFC, saturating ligand) (PTHR2 fused to PK2) does the source give for “PTH (1-34) (from UniProt P01270 32-65) (peptide)” here?
A: 72.9 fold

Q: For TYR-SRIF14 (peptide), which Fold induct. (arrestin recruitment, beta-galactosidase EFC, saturating ligand) (SSTR1 fused to PK1) is on record?
A: 1 fold

Q: Which Fold induct. (arrestin recruitment, beta-galactosidase EFC, saturating ligand) (SALPR fused to PK2) does the source give for “Relaxin-3 (from UniProt Q8WXF3 26-142) (ligand)” here?
A: 1.8 fold

Q: What does the source list for “CCL20 (from UniProt P78556 27-96) (ligand)”?
A: Fold induct. (arrestin recruitment, beta-galactosidase EFC, saturating ligand) (CCR6 fused to PK1): 1.4 fold; Fold induct. (arrestin recruitment, beta-galactosidase EFC, saturating ligand) (CCR6 fused to PK2): 6.5 fold

Q: “aMSH (from UniProt P01189 138-150) (peptide)” was tested. Which Fold induct. (arrestin recruitment, beta-galactosidase EFC, saturating ligand) (MC3R fused to PK2) did it give?
A: 3.2 fold

B1: Sauvagine (peptide, UniProt P01144 1-40, looked up)
peptide: QGPPISIDLSLELLRKMIEIEKQEKEKQQAANNRLLLDTI
Q: For B1, which Fold induct. (arrestin recruitment, beta-galactosidase EFC, saturating ligand) (CRHR2 fused to PK1) is on record?
A: 13.1 fold

Q: What about the Fold induct. (arrestin recruitment, beta-galactosidase EFC, saturating ligand) (CRHR2 fused to PK2) of the same molecule?
A: 17.4 fold

B2: Somatostatin-28 (peptide, UniProt P61278 89-116, looked up)
peptide: SANSNPAMAPRERKAGCKNFFWKTFTSC
Q: Which Fold induct. (arrestin recruitment, beta-galactosidase EFC, saturating ligand) (SSTR1 fused to PK1) does the source give for B2 here?
A: 1.2 fold

Q: And the Fold induct. (arrestin recruitment, beta-galactosidase EFC, saturating ligand) (SSTR1 fused to PK2)?
A: 1.3 fold

Q: And the Fold induct. (arrestin recruitment, beta-galactosidase EFC, saturating ligand) (SSTR4 fused to PK1)?
A: 1.3 fold

Q: And the Fold induct. (arrestin recruitment, beta-galactosidase EFC, saturating ligand) (SSTR4 fused to PK2)?
A: 1.6 fold

B3: CCL22 (ligand, UniProt O00626 25-93, looked up)
chain: GPYGANMEDSVCCRDYVRYRLPLRVVKHFYWTSDSCPRPGVVLLTFRDKEICADPRVPWVKMILNKLSQ
Q: What does the source list for B3?
A: Fold induct. (arrestin recruitment, beta-galactosidase EFC, saturating ligand) (CCR4 fused to PK1): 18.9 fold; Fold induct. (arrestin recruitment, beta-galactosidase EFC, saturating ligand) (CCR4 fused to PK2): 3 fold

B4: TIP39 (peptide, UniProt Q96A98 62-100, looked up)
peptide: SLALADDAAFRERARLLAALERRHWLNSYMHKLLVLDAP
Q: With B4 as the molecule, how does the Fold induct. (arrestin recruitment, beta-galactosidase EFC, saturating ligand) (PTHR2 fused to PK2) read?
A: 2.8 fold

Source: US20090098588A1
